In patent US20190367592A1 (AC IMMUNE, published 2019):
Changes are numbered by the printed parent chain. Names and notes keep the numbering of the source.

B1: hu125B11.v17 (HC3+LC1) (antibody, IgG1, V domains shown)
VH: EVQLVESGGGLVQPGGSLRLSCAASRFIFSNYWMNWVRQAPGKGLEWVAQIRLKSDNYATHYAESVKGRFTISRDDSKNTLYLQMNSLRAEDTAVYYCTGGTTYWGQGTLVTVSS
VL: DIQMTQSPSSLSASVGDRVTITCKASQNVGTAVAWYQQKPGKSPKLLIYSASIRYTGVPSRFSGSGSGTDFTLTISSLQPEDFATYFCQQFRTYPYTFGQGTKVEIK
notes: also called hu125B11 HC3 + 125B11 LC1
B2: hu37D3-H9.v5.4 (antibody, V domains shown)
VH: EVQLVESGGGLVQPGGSLRLSCAASGLIFRSYGMSWVRQAPGKGLEWVATINSGGTYTYYPDSVKGRFTISRDNSKNTLYLQMNSLRAEDTAVYYCANSYSGAMDYWGQGTLVTVSS
VL: EDVLTQTPLSLPVTPGQPASISCRSSQSIVHSQGNTYFEWYLQKPGQSPQLLIYKVSNRFSGVPDRFSGSGSGTDFTLKISRVEAEDVGVYYCFQGSLVPWTFGQGTKVEIK
B3: hu37D3.v28.A30 (antibody, V domains shown)
VH: B2 VH
VL: B2 VL with E1D, D2V, L4M, Q33N, F38L, L98H
B4: hu37D3-H9.v30.8 (antibody, V domains shown)
VH: B2 VH
VL: B2 VL with E1D, Q33Y
B5: hu37D3-H9.v31.13 (antibody, V domains shown)
VH: B2 VH
VL: B2 VL with E1D, Q33N, G34A, T36N
B6: hu37D3-H9.v30.6 (antibody, V domains shown)
VH: B2 VH
VL: B2 VL with E1D, Q33P
B7: hu37D3.v28.B8 (antibody, V domains shown)
VH: B2 VH
VL: B2 VL with E1D, Q33E, Y37R
B8: hu37D3-H9.v30.7 (antibody, V domains shown)
VH: B2 VH
VL: B2 VL with E1D, Q33F
B9: hu37D3-H9.v31.14 (antibody, V domains shown)
VH: B2 VH
VL: B2 VL with E1D, Q33N, G34A, T36R
B10: hu37D3.v28.B4 (antibody, V domains shown)
VH: B2 VH
VL: B2 VL with E1D, Y37H
B11: hu37D3.v28.B7 (antibody, V domains shown)
VH: B2 VH
VL: B2 VL with E1D, Q33D, Y37K
B12: hu37D3-H9.v31.11 (antibody, V domains shown)
VH: B2 VH
VL: B2 VL with E1D, Q33N, G34A, T36F
B13: hu37D3.v28.E3 (antibody, V domains shown)
VH: B2 VH
VL: B2 VL with E1D, H31D, Q33D
B14: hu37D3-H9.v31.10 (antibody, V domains shown)
VH: B2 VH
VL: B2 VL with E1D, Q33N, G34A, T36P
B15: hu37D3.v28.51 (antibody, V domains shown)
VH: B2 VH
VL: B2 VL with Q33H
B16: hu37D3.v28.B3 (antibody, V domains shown)
VH: B2 VH
VL: B2 VL with E1D, Y37W
B17: hu37D3-H9.v30.9 (antibody, V domains shown)
VH: B2 VH
VL: B2 VL with E1D, Q33H
B18: hu37D3-H9.v5.5 (antibody, V domains shown)
VH: B2 VH
VL: B2 VL with Q33E
B19: hu37D3-H9.v5.6 (antibody, V domains shown)
VH: B2 VH
VL: B2 VL with Q33A
B20: hu37D3-H9.v31.12 (antibody, V domains shown)
VH: B2 VH
VL: B2 VL with E1D, Q33N, G34A, T36Y
B21: hu37D3-H9.v31.4 (antibody, V domains shown)
VH: B2 VH
VL: B2 VL with E1D, Q33N, G34A, N35P
B22: hu37D3-H9.v31.1 (antibody, V domains shown)
VH: B2 VH
VL: B2 VL with E1D, Q33N, G34A, N35G
B23: hu37D3-H9.v1 hIgG1 (antibody)
heavy: not shown
light: EDQLTQSPSSLSASVGDRVTITCRSSQSIVHSNGNTYFEWYQQKPGKSPKLLIYKVSNRFSGVPSRFSGSGSGTDFTLTISSLQPEDFATYYCFQGSLVPWTFGQGTKVEIKRTVAAPSVFIFPPSDEQLKSGTASVVCLLNNFYPREAKVQWKVDNALQSGNSQESVTEQDSKDSTYSLSSTLTLSKADYEKHKVYACEVTHQGLSSPVTKSFNRGEC
notes: also called hu37D3.v1 hIgG1
B24: hu37D3.v39 hIgG4.YTE (antibody, V domains shown)
VH: B2 VH
VL: EDQLTQSPSSLSASVGDRVTITCRSSQSIVHSNGNTYLEWYQQKPGKSPKLLIYKVSNRFSGVPSRFSGSGSGTDFTLTISSLQPEDFATYYCFQGSLVPWTFGQGTKVEIKR
notes: hu37D3-H9.v1 with light chain F33L; also called hu37D3.v39 hIgG4.S228P.YTE
B25: hu37D3.v40 hIgG4.YTE (antibody, V domains shown)
VH: B2 VH
VL: B24 VL with G34T, L38F
notes: hu37D3-H9.v1 with light chain G29T; also called hu37D3.v40 hIgG4.S228P.YTE
B26: hu37D3.v41 hIgG4.YTE (antibody, V domains shown)
VH: B2 VH
VL: B24 VL with N35Q, L38F
notes: hu37D3-H9.v1 with light chain N30Q; also called hu37D3.v41 hIgG4.S228P.YTE

Each binder was assayed against T1, recombinant human Tau monomer, 2N4R isoform (amino acids 2-441) (human, UniProt P10636-8 2-441) (assay: SPR high-resolution kinetics, hIgG1).
T1 construct: range 2-441; N-terminal His-tag removed with TEV protease; also called monomeric Tau
T1 sequence (P10636 other isoform, or with tags, fused parts or gaps limits assumed): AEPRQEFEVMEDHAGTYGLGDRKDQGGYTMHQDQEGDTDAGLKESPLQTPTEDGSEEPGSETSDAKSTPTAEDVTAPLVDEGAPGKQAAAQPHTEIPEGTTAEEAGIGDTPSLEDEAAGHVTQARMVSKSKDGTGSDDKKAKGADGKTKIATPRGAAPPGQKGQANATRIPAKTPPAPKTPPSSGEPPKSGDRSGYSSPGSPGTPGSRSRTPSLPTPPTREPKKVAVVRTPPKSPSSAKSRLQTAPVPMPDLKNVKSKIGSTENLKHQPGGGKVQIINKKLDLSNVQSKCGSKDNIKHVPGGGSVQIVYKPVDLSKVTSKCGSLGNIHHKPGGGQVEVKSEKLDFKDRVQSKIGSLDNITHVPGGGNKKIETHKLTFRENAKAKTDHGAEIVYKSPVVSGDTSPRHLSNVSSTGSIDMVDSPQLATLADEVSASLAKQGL

For B1, the Kd was 10.5 nM.

Work on B1 yielded a koff of 0.0008 s⁻¹.

B1 showed a kon of 80000 M⁻¹ s⁻¹.

Each binder was assayed against T1, recombinant human Tau monomer, 2N4R … (assay: SPR screen, hIgG captured, Tau monomer analyte).

In the case of B1, the Kd is reported as 18 nM.

These binders were tested against T1, recombinant human Tau monomer, 2N4R … (assay: SPR, captured IgG, Tau monomer analyte, 1:1 model; fit-quality column: -).
Description: Briefly, IgGs in 1 mL culuture were captured using tip columns that were custom packed with 20 μL MabSelect SuRe resin (Glygen Corp & GE Healthcare). After washing with 1×PBS pH 7.4, IgGs were eluted into 160 μL of 50 mM phosphoric acid pH 3 and neutralized with 12 μL of 20×PBS pH 11. MabSelect SuRe tip columns were stripped in 0.1 M NaOH and regenerated with 1×PBS pH 7.4 for consecutive use of up to 15 times. Purified antibodies in 96-well format were normalized to 0.1 mg/ml using a Hamilton Star liquid handling robot. The “pre-stress” samples were kept at approximately 4° C. and the “post-stress” samples were incubated at 40° C. for two weeks in a PCR machine. Functional stability of the variants was compared by running surface plasmon resonance kinetics experiments with the “pre-stress” and “post-stress” antibody preps. The antibodies were assessed using a human antibody capture CM5 Series S chip generated using the GE Biacore human IgG capture kit and a Biacore T200 instrument. Antibodies diluted to 2 μg/ml were immobilized using a 15 second injection time and 10 μl/min flow rate. Binding to Tau monomer at 0 nM, 26.5 nM and 265 nM, at 25° C., using a flow rate of 40 μl/min, was monitored for a 180 second association phase followed by a 300 second dissociation phase. Samples were run in 10 mM HEPES pH7.4, 150 mM NaCl, 0.05% Tween 20 (HBSP) using a multi-cycle kinetics format. Data was analyzed using BIAevaluation software, fitting a 1:1 binding model. The resulting affinity (KD) values are shown in FIG. 8A-D. A Stability Index was also calculated, using the rationale that affinity-compromised antibodies (due for example to deamidation of key residues) are expected to contribute equally to the IgG capture level (“Ligand Level”) but to contribute less to the measured Tau binding, and that this would be reflected in the experimentally derived value for Rmax. To account for variations in the amount of each antibody captured, Rmax was normalized for the antibody capture level (as measured by “Ligand Level”, Response Units immobilized during antibody capture). Thus Normalized Rmax is calculated as the experimental Rmax (units=RU) divided by the “Ligand Level” (Evaluation output representing the RU captured during the hIgG capture step, units=RU), and Stability Index is calculated here as Normalized Rmax (post-stress) divided by Normalized Rmax (pre-stress).

B2 and B3 are within 1.5-fold of each other in Kd: 36.1 nM for the first, 34.4 nM for the second.

Compared with B4, B5 is 1.5-fold higher in Kd: 31.4 nM for the first, 48.1 nM for the second.

Going from B6 to B7, the Kd falls from 19.1 nM to 1.8 nM (11-fold). The second binds more tightly here.

B8 and B9 are within 1.5-fold of each other in Kd: 34.9 nM for the first, 35.5 nM for the second.

Going from B10 to B11, the Kd falls from 10.5 nM to 4.1 nM (2.6-fold).

First: B12
Second: B13
The Kd of the first is 21-fold higher: 22.7 nM for the first, 1.1 nM for the second. The second binds more tightly here.

First: B14
Second: B15
The Kd of the first is 6.5-fold lower: 5.5 nM for the first, 35.6 nM for the second.

Going from B16 to B17, the Kd rises from 0.4 nM to 36.4 nM (91-fold). The first binds more tightly here.

First: B18
Second: B19
The Kd of the first is 1.8-fold higher: 64.5 nM for the first, 36.6 nM for the second. The second binds more tightly here.

Compared with B20, B21 is 52-fold lower in Kd: 41.6 nM for the first, 0.8 nM for the second. The second binds more tightly here.

With B22 the Kd was 41.2 nM.

What follows are binders tested against T1, recombinant human Tau monomer, 2N4R … (assay: SPR; Normalized Rmax post-stress (2 weeks 40 C) / pre-stress).
Method in brief: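 First, IgGs from 1 mL culture were protein A purified and set to 0.1 mg/ml. Next, aliquots were stored at ~4° C. or stressed at 40° C. for two weeks. Then each prep was captured and probed with Tau monomer by multi-cycle SPR at 25° C., fitting a 1:1 binding model.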

Going from B2 to B3, the “Stability Index” value falls from 78% to 77%.

Compared with B4, B5 is lower in “Stability Index” value: 105% for the first, 83% for the second.

First: B6
Second: B7
The “Stability Index” value of the first is lower: 270% for the first, 456% for the second.

Compared with B8, B9 is lower in “Stability Index” value: 93% for the first, 86% for the second.

Compared with B10, B11 is higher in “Stability Index” value: 288% for the first, 607% for the second.

Compared with B12, B13 is higher in “Stability Index” value: 126% for the first, 364% for the second.

First: B14
Second: B15
The “Stability Index” value of the first is higher: 261% for the first, 74% for the second.

First: B16
Second: B17
The “Stability Index” value of the first is higher: 208% for the first, 63% for the second.

First: B18
Second: B19
The “Stability Index” value of the first is higher: 75% for the first, 67% for the second.

First: B20
Second: B21
The “Stability Index” value of the first is lower: 99% for the first, 533% for the second.

With B22 the “Stability Index” value was 72%.

The binders below were run against T1, recombinant human Tau monomer, 2N4R … (assay: SPR single-cycle, human Fab capture kit, Tau monomer analyte; mean ± range, n=2).
Description: Affinity of the humanized antibody variants was measured at 25° C. using a Biacore T200 instrument, the GE Biacore human FAb capture kit, and a CM5 Series S chip. Antibodies were diluted to 1 μg/ml in HBSP (10 mM HEPES pH7.4, 150 mM NaCl, 0.05% Tween 20) and captured at a flow rate of 10 μl/min for 180 seconds. Kinetic data were collected for human Tau monomer injected at 1.2, 3.7, 11, 33 and 100 nM in HBSP using the Single Cycle Kinetics methodology and a flow rate of 30 μl/min. Each concentration of Tau monomer was injected for a period of 3 minutes and dissociation was monitored for ten minutes. Between cycles, the surface was regenerated with two sequential one-minute injections of 10 mM glycine pH2.1. Data was fit to a 1:1 binding model using BIAEvaluation software. Each antibody was analyzed twice within the experiment; data in Table 22 are shown as mean±range.

B23 and B24 are within 1.5-fold of each other in Kd: 2.3 nM for the first, 1.9 nM for the second.

B25 and B26 are within 1.5-fold of each other in Kd: 4.4 nM for the first, 5.4 nM for the second.

B23 and B24 are the same in koff: 0.001 s⁻¹ for the first, 0.001 s⁻¹ for the second.

Going from B25 to B26, the koff rises from 0.003 s⁻¹ to 0.005 s⁻¹ (1.7-fold).

B23 and B24 are the same in kon: 600000 M⁻¹ s⁻¹ for the first, 600000 M⁻¹ s⁻¹ for the second.

B25 and B26 are within 1.5-fold of each other in kon: 800000 M⁻¹ s⁻¹ for the first, 900000 M⁻¹ s⁻¹ for the second.
